The values that follow are results of earlier work, collected in patent publication US9550786B2, “4-fluoropiperidine orexin receptor antagonists” (Merck Sharp & Dohme Corp., priority 2013, dated 2017).

One data set addresses T1, OX1R (Homo sapiens, UniProt O43613).
T1 sequence (O43613 1-425): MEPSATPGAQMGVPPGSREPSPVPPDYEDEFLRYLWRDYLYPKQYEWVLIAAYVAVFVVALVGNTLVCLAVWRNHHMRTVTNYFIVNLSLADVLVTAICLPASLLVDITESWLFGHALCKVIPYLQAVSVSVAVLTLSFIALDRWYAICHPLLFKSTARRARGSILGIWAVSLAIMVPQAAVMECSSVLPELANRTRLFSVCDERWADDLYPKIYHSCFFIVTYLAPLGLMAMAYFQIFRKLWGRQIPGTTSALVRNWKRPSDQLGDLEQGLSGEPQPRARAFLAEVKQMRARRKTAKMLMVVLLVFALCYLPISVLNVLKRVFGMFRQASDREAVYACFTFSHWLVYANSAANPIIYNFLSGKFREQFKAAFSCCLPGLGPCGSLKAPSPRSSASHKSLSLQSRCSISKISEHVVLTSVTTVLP

In the next data set the target is T2, OX2R (Homo sapiens, UniProt O43614).
T2 sequence (O43614 1-444): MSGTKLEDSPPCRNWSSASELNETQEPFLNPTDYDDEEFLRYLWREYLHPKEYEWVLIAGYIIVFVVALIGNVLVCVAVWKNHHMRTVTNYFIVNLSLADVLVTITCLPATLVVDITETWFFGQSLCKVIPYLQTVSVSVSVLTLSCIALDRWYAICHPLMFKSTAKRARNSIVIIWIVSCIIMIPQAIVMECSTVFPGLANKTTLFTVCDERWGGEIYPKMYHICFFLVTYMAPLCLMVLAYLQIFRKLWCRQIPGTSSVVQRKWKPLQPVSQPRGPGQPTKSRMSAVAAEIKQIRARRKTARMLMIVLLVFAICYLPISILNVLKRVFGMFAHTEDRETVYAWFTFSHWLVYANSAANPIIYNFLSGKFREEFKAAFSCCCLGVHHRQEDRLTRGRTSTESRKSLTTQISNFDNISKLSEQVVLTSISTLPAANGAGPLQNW

Ends that are not written are not given here.

In the case of “orexin A (QPLPDCCRQKTCSCRLYELLHGAGNHAAGILTL; not fully specified (residue 1, C-terminus, bridges); cysteine pairing not given here; UniProt O43612 34-66, looked up) [OX-A]”, in the data set with OX1R, the “binding affinity toward OX1R” value is 20 nM.

As to orexin B [OX-B], the “binding affinity toward OX1R” value with OX1R is 420 nM. Further, the “binding affinity toward OX2R” value with OX2R is given as 36 nM.
